Reference: patent publication US20170218055A1 (UNIVERSITY OF CHICAGO, published 2017)

T1: peptide H1 (helix 1 of the EKKAA IgBD)
T1 construct: Synthetic linear peptide, free NH2 and COOH ends as printed
T1 peptide: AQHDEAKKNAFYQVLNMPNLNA

T2: peptide H3 (helix 3 of the EKKAA IgBD)
T2 construct: Synthetic linear peptide
T2 peptide: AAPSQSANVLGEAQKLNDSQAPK

T3: peptide H2 (helix 2 of the EKKAA IgBD)
T3 construct: Synthetic linear peptide
T3 peptide: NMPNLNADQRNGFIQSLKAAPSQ

B1: mAb 7E2 (antibody, V domains shown)
VH: QIQLVQSGPELKKPGETVKISCKASGYTFTDYSVHWVKQAPGKGLKWMAWINTATGEPTFADDFKGRFAFSLETSARTAYLQINNLKNEDTATYFCAPQLTGPFAYWGHGTLVTVSA
VL: DIQMTQSPASLSASVGETVTITCRASENIHNYLAWYQQKQGKSPQLLVYNAKTLTDGVPSRFSGSGSGTQFSLKINSLQAGDFGSYYCQHSWSIPYTFGGGTRLQIR
notes: Mouse IgG1 hybridoma mAb
B2: mAb 5A10 (antibody, V domains shown)
VH: EVKLVESGGGLVKPGGSLKLSCAASGFAFSNYDMSWVRQTPEKRLEWVATISSGGTYPYYPDSVKGRFTISRDNAKNTLYLQLSSLRSEDTALYYCARGGFLITTRDYYAMDYWGQGTSVTVSS
VL: TIVLTQSPAIMSASPGEKVTMTCSASSSVSYMYWYQQKPGSSPRLLIYDTSNLASGVPVRFSGSGSGTSYSLTISRMEAEDAATYYCQQWSSYPPTFGGGTKLEIK
notes: Mouse IgG1 hybridoma mAb raised against SpAKKAA; also called 5A10-HRP; HRP-5A10
B3: mAb 2F2 (antibody, V domains shown)
VH: VKLVESGGDLVKPGGSLKLSCAASRFTFSSYVMSWVRQTPEKRLEWVASIGSGGTTYYPDTVKGRFTISRDNARNILYLQMSSLRSDDTAMYYCTRGRGYGFAWYFDVWGAGTTVTVSS
VL: TIVLTQSPAIMSASPGEKVTMTCSASSSVSYMYWYQQKPGSSPRLLIYDTSNLASGVPVRFSGSGSGTSYSLTISRMEAEDAATYYCQQWSSYPPTFGGGTKLEIK
notes: Mouse IgG2b hybridoma mAb
B4: mAb 3A6 (antibody, V domains shown)
VH: QIQLVQSGPELKKPGETVKISCKASGYNFTDYSMHWVKQAPGKGLKWVGWINTETAESTYADDFKGRFAFSLETSASTAYLQINSLKDEDTATFFCAHFDCWGQGTTLTVSS
VL: DVVMTQISLSLPVTLGDQASISCRASQSLVHSNGNTYLNWYLQKPGQSPKLLIHKVSNRFSGVPDRFSGSGSGTDFTLKISRVEAEDLGVYFCSQITYVPWTFGGGTKLEIK
notes: Mouse IgG1 hybridoma mAb
B5: mAb 8E2 (antibody, V domains shown)
VH: KVQLQQSGAGLVKPGASVKLSCKASGYTFTEYSIHWVKQSSGQGLEWIGWFYPGSGYIKYNEKFKDKATLTADKSSSTVYMEFSRLTSEDSAVYFCARHGYGNYVGYAMDYWGQGTSVTVSS
VL: DIQMTQSPASLSASVGETVTITCRASEIIYSYLAWYQQKQGKSPQLLVYFAKTLAEGVPSRFSGSGSGTQFSLKINSLQPEDFGIYYCQHHYGTPYTFGGGTKLEIK
notes: Mouse IgG1 hybridoma mAb
B6: mAb 6D11 (antibody, V domains shown)
VH: QVQLQQSGAELVRPGTSVKVSCKASGNAFTNYLIEWIKQRPGQGLEWIGVINPGSGITNYNEKFKGKATLTADKSSNTAYMQLSSLSSDDSAVYFCSGSANWFAYWGQGTLVTVSA
VL: DIVLTQSPASLAVSLGQRASISCRASESVEYSGASLMQWYQHKPGQPPKLLIYAASNVESGVPVRFSGSGSGTDFSLNIHPVEEDDIAMYFCQQSRKVPSTFGGGTKLEIK
notes: Mouse IgG2a hybridoma mAb
B7: mAb 3D11 (antibody, V domains shown)
VH: QSGPELMKPGASVKISCKASGYSFTSYYMHWVKQSHGKSLEWIGYIDPFNGGTSYNQKFKGKATLTVDKSSSTAYMHLSSLTSEDSAVYYCARYGYDGTFYAMDYWGQGTSVTVSS
VL: RIVLTQSPAITAASLGQKVTITCSASSSVSYMHWYQQKSGTSPKPWIYEISKLASGVPARFSGSGSGTSYSLTISSMEAEDAAIYYCQQWSYPFTFGSGTKLEIK
notes: Mouse IgG2b hybridoma mAb raised against SpAKKAA; also called 3D11-HRP; HRP-3D11

Tests used:
[1] = target: T4, SpAKKAA (non-toxigenic staphylococcal protein A variant) (Staphylococcus aureus, UniProt A0A0H3K686 37-327); test: ELISA, antigen-coated plate, mAb titrated
T4 construct: The four substitutions are made in each of the five domains (20 in all); Purified from E. coli; also called non-toxigenic protein A

[2] = target: T5, EKKAA immunoglobulin binding domain of SpAKKAA (Staphylococcus aureus, UniProt A0A0H3K686 37-92); test: ELISA, antigen-coated plate, mAb titrated
T5 construct: also called SpA-EKKAA; E domain; not shown: N-terminal six histidyl tag (pET15b)

[3] = target: T6, DKKAA immunoglobulin binding domain of SpAKKAA (Staphylococcus aureus, UniProt A0A0H3K686 96-149); test: ELISA, antigen-coated plate, mAb titrated
T6 construct: the construct is said to span residues 57-117 of mature SpA (61 residues), so its limits differ from the entry; not shown: N-terminal six histidyl tag (pET15b)

[4] = target: T7, AKKAA immunoglobulin binding domain of SpAKKAA (Staphylococcus aureus, UniProt A0A0H3K686 156-207); test: ELISA, antigen-coated plate, mAb titrated
T7 construct: the construct is said to span residues 118-175 of mature SpA and its limits may differ from the entry; not shown: N-terminal six histidyl tag (pET15b)

[5] = target: T8, BKKAA immunoglobulin binding domain of SpAKKAA (Staphylococcus aureus, UniProt A0A0H3K686 214-265); test: ELISA, antigen-coated plate, mAb titrated
T8 construct: not shown: N-terminal six histidyl tag (pET15b)

[6] = target: T9, CKKAA immunoglobulin binding domain of SpAKKAA (Staphylococcus aureus, UniProt A0A0H3K686 214-323); test: ELISA, antigen-coated plate, mAb titrated
T9 construct: the construct is said to span residues 234-291 of mature SpA and its limits may differ from the entry; not shown: N-terminal six histidyl tag (pET15b)

[7] = target: T1, peptide H1 (helix 1 of the EKKAA IgBD); test: ELISA, antigen-coated plate, mAb titrated
[8] = target: T2, peptide H3 (helix 3 of the EKKAA IgBD); test: ELISA, antigen-coated plate, mAb titrated
[9] = target: T10, peptide H1+2 (helices 1+2 of the EKKAA IgBD); test: ELISA, antigen-coated plate, mAb titrated
T10 construct: Synthetic linear peptide; also called helix 1+2 peptide

[10] = target: T3, peptide H2 (helix 2 of the EKKAA IgBD); test: ELISA, antigen-coated plate, mAb titrated
[11] = target: T5, EKKAA immunoglobulin binding domain of …; test: ELISA, antigen-coated plate

Row | Binder | Ka [1] [M⁻¹] | Ka [2] [M⁻¹] | Ka [3] [M⁻¹] | Ka [4] [M⁻¹] | Ka [5] [M⁻¹] | Ka [6] [M⁻¹] | Ka [7] [M⁻¹] | Ka [8] [M⁻¹] | Ka [9] [M⁻¹] | Ka [10] [M⁻¹] | binding result [11]
1 | B1 | 3.1e+08 | 2.9e+08 | 3e+08 | 3.6e+08 | 3.2e+08 | 2.8e+08 |  |  |  |  | 
2 | B2 | 8.47e+09 | 9.4e+09 | 8.19e+09 | 8.08e+09 | 7.03e+09 | 1.01e+10 |  |  |  |  | 
3 | B3 | 1.9e+09 | 1.72e+09 | 1.76e+09 | 1.37e+09 | 1.13e+09 | 1.8e+09 |  |  |  |  | 
4 | B4 | 1.37e+09 | 1.38e+09 |  | 2.05e+09 | 6.4e+08 | 4e+07 | 6e+07 | 1e+07 | 4.4e+08 |  | 
5 | B5 | 1.56e+09 | 1.4e+09 | 1.51e+09 | 1.52e+09 | 1.14e+09 | 1.26e+09 |  |  | 2.9e+08 |  | 
6 | B6 |  |  | 2.42e+09 |  |  | 4.75e+09 | 2.7e+08 |  | 5.22e+09 | 1e+07 | 
7 | B7 | 3.93e+09 |  |  | 8.7e+08 | 3.92e+09 | 3.6e+09 | 2e+07 |  |  |  | no binding
